# Test results: paper PMC3349339 (Journal of Molecular Biology, 2012)
# Tests used:
# [1] = target: β81mut (HLA-DR1 with His→Asn substitution at position β81) (Homo sapiens, UniProt P01903+P01911, A100R/D57E/F55L/F60I/F76Y/H110N/I96L/L162R/M171V/P40L/Q125E/R42F/V115G/Y59C); assay: Fluorescence polarization dissociation measurements, β81mut; format: binding; conditions: FP peptide release, 37 °C, pH 5
# wtDR1 = assay: Fluorescence polarization dissociation measurements, wtDR1; format: binding, human; conditions: FP peptide release, 37 °C, pH 5
# [2] = target: HLA-DR1 with a His→Asn substitution at position β81 (human); assay: fluorescence polarisation
# [3] = target: HLA-DR1 with a His→Asn substitution at position β81 (human)
Substance,"Stable binding allowing off-rate measurements, β81mut [1]","Stable binding allowing off-rate measurements, wtDR1 (wtDR1)",t1/2 [2] [h],Kd [3] [nM]
"P2,3 SD: HA306-319-derived peptide substituted at P2 and P3 (GPKYSDQNTLKLAT)",this was not possible,could bind in a stable fashion,–,–
"P3,10 DG: HA306-319-derived peptide substituted at P3 and P10 (GPKYVDQNTLKLGT)",this was not possible,could bind in a stable fashion,–,–
fluorescein-labelled HA_(306-319) peptide,–,–,77.3,–
HA_(306-319) peptide,–,–,–,50.6
